Patent US20250122303A1 (HUMMINGBIRD BIOSCIENCE PTE, published 2025)
Where a chain is given by its changes, count along the chain named. Names and notes keep the numbering of the source. Values belong to the binder of their own block, whether it stands above or below them.

How the values were obtained:
[1] = molecular target: T1, human HER3 expressed on cells (HEK293 HER3 O/E cells) (human, UniProt P21860 20-1342); assay: flow cytometry, HEK293 and HEK293 cells overexpressing human HER3, 20 ug/ml antibody, FITC anti-Fc secondary
T1 construct: Also used here for HER3 on U2OS cells of the PathHunter kit and on cancer cell lines; also called HEK293 cells transfected with vector encoding human HER3; human HER3-expressing cells
Procedure: The cells were washed thrice with FACS buffer (PBS with 5 mM EDTA and 0.5% BSA) and resuspended in FITC-conjugated anti-FC antibody (Invitrogen, USA) for 40 min at 2-8° C. Cells were washed again and resuspended in 200 μL of FACS flow buffer (PBS with 5 mM EDTA) for flow cytometric analysis using MACSQuant 10 (Miltenyi Biotec, Germany). After acquisition, all raw data were analyzed using Flowlogic software. Cells were gated using forward and side scatter profile percentage of positive cells was determined for native and overexpressing cell populations.

[2] = molecular target: T2, His-tagged FcγRIIIa (V158) (human, UniProt P08637 17-208); assay: Bio-Layer Interferometry; His-tagged FcγRIIIa (V158) on anti-Penta-HIS tips, antibody in solution
T2 construct: not shown: His tag
Procedure: (§1) All measurements were performed at 25° C. with agitation at 1000 rpm. […] Sensograms were referenced for buffer effects and then fitted using the Octet QK384 user software (Pall ForteBio, USA). Kinetic responses were subjected to a global fitting using a one site binding model to obtain values for association (Kₒₙ), dissociation (Koff) rate constants and the equilibrium dissociation constant (KD). Only curves that could be reliably fitted with the software (R²>0.90) were included in the analysis.
BLI was performed as described above.

His-tagged human HER3 [3] = molecular target: T3, His-tagged human HER3 (human, UniProt P21860 20-643); assay: BLI (Octet QK384), antibody on anti-human IgG capture tips, His-tagged human HER3 in solution, global one-site fit
T3 construct: Antigen of the BLI experiments and of the HER2-Fc dimerisation ELISA; also called HER3 His; not shown: His tag
Procedure: as §1, with “The anti-HER3 antibody clones in IgG1 format were analysed for binding affinity to human HER3. Bio-Layer Interferometry (BLI) experiments were performed using the Octet QK384 system (ForteBio). anti-Human IgG Capture (AHC) Octet sensor tips (Pall ForteBio, USA) were used to anti-HER3 antibodies (25 nM). All” for “All”

His-tagged human HER3 [4] = molecular target: T3, His-tagged human HER3; assay: plate ELISA dimerisation assay; HER2-Fc coated, constant HER3 His and NRG, antibody varied; blocked partner HER2-Fc
Procedure: Plate-based ELISA dimerisation assays were carried out according to standard protocols. Plates were coated with 1 μg/ml HER2-Fc protein. […] Plates were then washed and incubated for 1 hour with secondary anti-HIS HRP antibody. […] The absorbance was read at 450 nm.

moFcRn = molecular target: T4, moFcRn (mouse, UniProt Q61559); assay: Bio-Layer Interferometry (determined as described in Example 7)
T4 construct: recombinant; also called mouse FcRn; gene FCGRT (so in the source)
T4 sequence (receptor, looked up): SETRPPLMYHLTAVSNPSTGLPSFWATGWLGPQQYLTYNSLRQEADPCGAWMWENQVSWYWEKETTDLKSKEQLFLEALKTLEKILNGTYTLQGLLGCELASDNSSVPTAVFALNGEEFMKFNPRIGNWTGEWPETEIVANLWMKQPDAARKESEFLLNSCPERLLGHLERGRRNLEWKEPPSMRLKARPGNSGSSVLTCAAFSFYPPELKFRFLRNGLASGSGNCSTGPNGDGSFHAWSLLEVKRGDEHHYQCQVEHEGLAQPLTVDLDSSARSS
T4 sequence (looked up): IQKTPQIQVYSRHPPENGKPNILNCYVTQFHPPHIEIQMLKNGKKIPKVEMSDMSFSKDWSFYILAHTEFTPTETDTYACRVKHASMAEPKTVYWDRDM

FcRn = molecular target: T5, FcRn (human, UniProt P55899); assay: as above
T5 construct: recombinant; also called human FcRn; gene FCGRT (so in the source)

His-tagged human HER3 [5] = molecular target: T3, His-tagged human HER3; assay: Bio-Layer Interferometry (Octet QK384); antibody on anti-Human IgG Capture tips, HIS-tagged human HER3 at 30.3, 60.5, 121 and 242 nM
moFcgRIV = molecular target: T6, moFcgRIV; assay: Bio-Layer Interferometry (determined as described in Example 7)
T6 construct: also called CD16-2; mFcγRIV
T6 chain: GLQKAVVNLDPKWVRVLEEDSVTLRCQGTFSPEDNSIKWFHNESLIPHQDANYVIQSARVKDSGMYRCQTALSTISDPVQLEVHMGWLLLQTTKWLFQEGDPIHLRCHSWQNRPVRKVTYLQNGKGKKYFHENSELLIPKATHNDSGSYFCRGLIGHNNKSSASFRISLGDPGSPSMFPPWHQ

FcgRIIA (H167) = molecular target: T7, FcgRIIA (H167) (human, UniProt P12318); assay: as above
T7 construct: recombinant; also called CD32A; hFcγRIIa167H
T7 sequence (receptor, looked up): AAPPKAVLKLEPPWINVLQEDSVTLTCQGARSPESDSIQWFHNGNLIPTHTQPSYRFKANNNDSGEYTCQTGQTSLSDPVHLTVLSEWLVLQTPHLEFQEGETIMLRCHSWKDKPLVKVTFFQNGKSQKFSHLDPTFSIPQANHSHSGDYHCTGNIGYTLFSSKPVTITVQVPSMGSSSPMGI

FcgRIIB = molecular target: T8, FcgRIIB (human, UniProt P31994); assay: as above
T8 construct: recombinant; also called CD32B; hFcγRIIb
T8 sequence (receptor, looked up): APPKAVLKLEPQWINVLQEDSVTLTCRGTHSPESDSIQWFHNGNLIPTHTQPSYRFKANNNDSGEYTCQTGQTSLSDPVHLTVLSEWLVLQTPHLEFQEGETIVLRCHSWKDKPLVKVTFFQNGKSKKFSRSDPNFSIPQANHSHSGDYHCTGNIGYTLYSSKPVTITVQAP

FcgRIIA (R167) = molecular target: T9, FcgRIIA (R167) (human, UniProt P12318); assay: as above
T9 construct: recombinant; also called CD32A; hFcγRIIa167R
T9 sequence (receptor, looked up): T7 sequence (receptor, looked up) with H132R

FcgRIIIA (F158) = molecular target: T10, FcgRIIIA (F158) (human, UniProt P08637); assay: as above
T10 construct: recombinant; also called CD16A; hFcγRIIIa158F

[6] = molecular target: T2, His-tagged FcγRIIIa (V158); assay: as above

- binding result [1]: binds
B1: anti-HER3 clone 10A6 IgG1 (antibody, V domains shown)
VH: DVQLQESGPGLVKPSQSLSLTCSVTGNFITSGYFWNWIRQFPGNKLEWMGFISYDGSNNYKPSLKNRISITRDTSKNQFFLKLNSVTTEDTATYYCARENYGFGFDYWGQGTTLTVSS
VL: DIVLTQSPSSLPVSIGEKVTMSCKSSQSLLYSDNQKNYLAWYQQKPGQSPKLLIYWASTWKSGVPDRFTGSGSGTDFTLTISSVKAEDLAVYYCQQYFTFPWTFGGGTKLEIKR
notes: Human-mouse chimeric IgG1/kappa

- Kd (His-tagged human HER3 [3]): 50.3 nM
B3: anti-HER3 clone 4-35-B4 IgG1 (antibody, V domains shown)
VH: EVQLQQSGAELVKPGASVKLSCTASGFNIKDTYIHWVKQRPDQGLEWIGKIIDPANGNTNYDPKFQGKATITADTSSNTAYLQLSSLSSEDTAVYFCARGLHWGQGTTLTVSS
VL: DIVLTQSPASLAVSLGQRATISCRASKSVSTSGYSYMHWYQQKPGQPPKLLIYLASNLESGVPARFSGSGSGTDFTLNIHPVEEEDAATYYCQHSRELPYTFGGGTKLEIKR
notes: as for B1

- IC50 (His-tagged human HER3 [4]): 80.2 nM
B4: M-05-74 (antibody, V domains shown)
VH: QVQLQQSGAELAKPGASVKMSCKTSGYTLTDYWIHWVKQRPGQGLEWIGYINPYTGYTESNQKFKDKATLTADKSSNTAYIQLSSLTSEDSAVYYCARPYYYGDYWGQGTTLTVSS
VL: QIVLTQSPAIMSASPGERVTITCSASSSVSYMHWFQQKPGTSPKLLIYSTSNLASGVPARFSGSGSGTSYSLTISRMEAEDAATYYCQQRSSYPFTFGSGTKLEIK

More lines, now with the values behind:

B2: 10D1 GASD variant (antibody, human IgG1, kappa)
heavy: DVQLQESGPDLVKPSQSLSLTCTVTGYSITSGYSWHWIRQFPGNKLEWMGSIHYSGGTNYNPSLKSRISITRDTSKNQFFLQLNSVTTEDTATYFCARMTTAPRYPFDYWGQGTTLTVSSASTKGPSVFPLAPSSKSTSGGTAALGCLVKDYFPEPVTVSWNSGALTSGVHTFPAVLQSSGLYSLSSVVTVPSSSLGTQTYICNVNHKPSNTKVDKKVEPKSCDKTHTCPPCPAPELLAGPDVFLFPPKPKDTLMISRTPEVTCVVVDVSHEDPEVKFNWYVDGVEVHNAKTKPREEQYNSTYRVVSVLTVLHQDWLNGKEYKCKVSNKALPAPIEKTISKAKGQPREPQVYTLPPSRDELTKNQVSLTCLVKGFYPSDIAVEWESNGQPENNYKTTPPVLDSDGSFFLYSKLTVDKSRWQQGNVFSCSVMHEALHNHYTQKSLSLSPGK
light: DIVMTQSQKFMSTSVGDRVSVTCKASQIVGSNVAWYQQKPGQSPKPLIYSASYRYSGVPDRFTASGSGTDFTLTITNVQSEDLAEYFCQQYSSHPLTFGAGTKLELKRTVAAPSVFIFPPSDEQLKSGTASVVCLLNNFYPREAKVQWKVDNALQSGNSQESVTEQDSKDSTYSLSSTLTLSKADYEKHKVYACEVTHQGLSSPVTKSFNRGEC
notes: also called Fc-modified anti-HER3 antibody clone 10D1 comprising GASD substitutions in CH2 region
- Kd [2]: 58 nM
- koff [2]: 0.009 s⁻¹
- kon [2]: 160000 M⁻¹ s⁻¹

B5: 10D1F hIgG1 N297Q (antibody)
heavy chain: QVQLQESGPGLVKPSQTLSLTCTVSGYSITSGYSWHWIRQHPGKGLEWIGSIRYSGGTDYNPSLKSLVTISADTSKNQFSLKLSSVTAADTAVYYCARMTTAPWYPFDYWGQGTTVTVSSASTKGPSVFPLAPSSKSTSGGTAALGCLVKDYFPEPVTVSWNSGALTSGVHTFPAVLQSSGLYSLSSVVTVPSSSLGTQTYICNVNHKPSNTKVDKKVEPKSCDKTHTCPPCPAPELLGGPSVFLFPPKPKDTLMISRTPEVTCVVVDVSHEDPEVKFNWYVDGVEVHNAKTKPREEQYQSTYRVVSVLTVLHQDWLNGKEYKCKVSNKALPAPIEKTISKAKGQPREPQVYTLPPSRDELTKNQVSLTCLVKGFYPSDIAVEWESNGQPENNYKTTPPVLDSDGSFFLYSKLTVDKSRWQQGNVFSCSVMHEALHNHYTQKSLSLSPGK
light chain: DIQMTQSPSSVSASVGDRVTITCKASQIVGSNVAWYQQKPGKAPEPLIYSASYLYSGVPSRFSGSGSGTDFTLTISSLQPEDFATYYCQQYSSHPLTFGQGTKLEIKRTVAAPSVFIFPPSDEQLKSGTASVVCLLNNFYPREAKVQWKVDNALQSGNSQESVTEQDSKDSTYSLSSTLTLSKADYEKHKVYACEVTHQGLSSPVTKSFNRGEC
- Kd (moFcRn): 13.7 nM
- Kd (FcRn): 54.6 nM

B6: 10D1F.FcB (antibody, human IgG1, kappa)
heavy: QVQLQESGPGLVKPSQTLSLTCTVSGYSITSGYSWHWIRQHPGKGLEWIGSIRYSGGTDYNPSLKSLVTISADTSKNQFSLKLSSVTAADTAVYYCARMTTAPWYPFDYWGQGTTVTVSSASTKGPSVFPLAPSSKSTSGGTAALGCLVKDYFPEPVTVSWNSGALTSGVHTFPAVLQSSGLYSLSSVVTVPSSSLGTQTYICNVNHKPSNTKVDKKVEPKSCDKTHTCPPCPAPELLAGPDVFCFPPKPKDTLMISRTPEVTCVVVDVSHEDPEVKFNWYVDGVEVHNAKTKPREEQYNSTYRVVSVLTVLHQDWLNGKEYKCKVSNKALPLPEECTISKAKGQPREPQVYTLPPSRDELTKNQVSLTCLVKGFYPSDIAVEWESNGQPENNYKTTPPVLDSDGSFFLYSKLTVDKSRWQQGNVFSCSVMHEALHNHYTQKSLSLSPGK
light: B5 light chain
notes: also called 10D1F.B
- Kd (His-tagged human HER3 [5]): 0.0222 nM
- koff (His-tagged human HER3 [5]): 4.96e-06 s⁻¹
- kon (His-tagged human HER3 [5]): 223000 M⁻¹ s⁻¹
- Kd (moFcgRIV): 55.4 nM
- Kd (moFcRn): 15.2 nM
- Kd (FcgRIIA (H167)): 561 nM
- Kd (FcRn): 37.4 nM
- Kd (FcgRIIB): 580 nM
- Kd (FcgRIIA (R167)): 400 nM
- Kd (FcgRIIIA (F158)): 162 nM
- Kd [6]: 82.1 nM
